The experiment addresses T1, CD3 epsilon homodimer protein (UniProt P07766 23-126).
T1 construct: construct not described; homodimer as printed; also called CD3 (CD3 epsilon)
As to the kind of experiment: SPR Biacore T200, CD3 epsilon homodimer immobilized; vs unaltered GLS3000.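 Further: antibody variants flowed as analyte over CD3 epsilon homodimer amine-coupled to a CM4 chip, at 25 °C in HBS-EP+ running buffer, fitted with Biacore T200 Evaluation Software.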

T1 sequence (P07766 23-126): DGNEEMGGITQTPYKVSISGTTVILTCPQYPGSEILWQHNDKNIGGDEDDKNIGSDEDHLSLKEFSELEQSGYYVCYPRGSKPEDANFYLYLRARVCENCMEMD

B1: GLS3000 H34A (Kabat) L chain altered form, one-arm antibody with CE115HA000 (antibody, human IgG1, kappa, L234A L235A, N297A, name in Kabat numbering)
heavy: QVQLVESGGGVVQPGRSLRLSCAASGFTFSNAWMHWVRQAPGKGLEWVAQIKAKSNNYATYYAESVKGRFTISRDDSKNSLYLQMNSLKTEDTAVYYCRYVHYGAYYGVDAWGQGTTVTVSSASTKGPSVFPLAPSSKSTSGGTAALGCLVKDYFPEPVTVSWNSGALTSGVHTFPAVLQSSGLYSLSSVVTVPSSSLGTQTYICNVNHKPSNTKVDKKVEPKSCDKTHTCPPCPAPEAAGGPSVFLFPPKPKDTLMISRTPEVTCVVVDVSHEDPEVKFNWYVDGVEVHNAKTKPREEQYASTYRVVSVLTVLHQDWLNGKEYKCKVSNKALPAPIEKTISKAKGQPREPQVYTLPPSRCELTKNQVSLSCAVKGFYPSDIAVEWESNGQPENNYKTTPPVLDSDGSFFLVSKLTVDKSRWQQGNVFSCSVMHEALHNHYTQKSLSLSPDYKDDDDK
chain: EPKSSDKTHTCPPCPAPELLGGPSVFLFPPKPKDTLMISRTPEVTCVVVDVSHEDPEVKFNWYVDGVEVHNAKTKPREEQYNSTYRVVSVLTVLHQDWLNGKEYKCKVSNKALPAPIEKTISKAKGQPREPQVCTLPPSRDELTKNQVSLWCLVKGFYPSDIAVEWESNGQPENNYKTTPPVLDSDGSFFLYSKLTVDKSRWQQGNVFSCSVMHEALHNRYTQKSLSLSP
light: DIVMTQSPLSLPVTPGEPASISCRSSQSLVHSNRNTYLAWYQQKPGQAPRLLIYKVSNRFSGVPDRFSGSGSGTDFTLKISRVEAEDVGVYYCGQGTQVPYTFGQGTKLEIKRTVAAPSVFIFPPSDEQLKSGTASVVCLLNNFYPREAKVQWKVDNALQSGNSQESVTEQDSKDSTYSLSSTLTLSKADYEKHKVYACEVTHQGLSSPVTKSFNRGEC
notes: one-arm antibody
For B1, the “KD ratio to GLS3000 (Affinity up)” value is 1.18.

B2: GLS3000 L27bD (Kabat) L chain altered form, one-arm antibody with CE115HA000 (antibody, human IgG1, kappa, L234A L235A, N297A, name in Kabat numbering)
heavy: QVQLVESGGGVVQPGRSLRLSCAASGFTFSNAWMHWVRQAPGKGLEWVAQIKAKSNNYATYYAESVKGRFTISRDDSKNSLYLQMNSLKTEDTAVYYCRYVHYGAYYGVDAWGQGTTVTVSSASTKGPSVFPLAPSSKSTSGGTAALGCLVKDYFPEPVTVSWNSGALTSGVHTFPAVLQSSGLYSLSSVVTVPSSSLGTQTYICNVNHKPSNTKVDKKVEPKSCDKTHTCPPCPAPEAAGGPSVFLFPPKPKDTLMISRTPEVTCVVVDVSHEDPEVKFNWYVDGVEVHNAKTKPREEQYASTYRVVSVLTVLHQDWLNGKEYKCKVSNKALPAPIEKTISKAKGQPREPQVYTLPPSRCELTKNQVSLSCAVKGFYPSDIAVEWESNGQPENNYKTTPPVLDSDGSFFLVSKLTVDKSRWQQGNVFSCSVMHEALHNHYTQKSLSLSPDYKDDDDK
chain: EPKSSDKTHTCPPCPAPELLGGPSVFLFPPKPKDTLMISRTPEVTCVVVDVSHEDPEVKFNWYVDGVEVHNAKTKPREEQYNSTYRVVSVLTVLHQDWLNGKEYKCKVSNKALPAPIEKTISKAKGQPREPQVCTLPPSRDELTKNQVSLWCLVKGFYPSDIAVEWESNGQPENNYKTTPPVLDSDGSFFLYSKLTVDKSRWQQGNVFSCSVMHEALHNRYTQKSLSLSP
light: DIVMTQSPLSLPVTPGEPASISCRSSQSDVHSNRNTYLHWYQQKPGQAPRLLIYKVSNRFSGVPDRFSGSGSGTDFTLKISRVEAEDVGVYYCGQGTQVPYTFGQGTKLEIKRTVAAPSVFIFPPSDEQLKSGTASVVCLLNNFYPREAKVQWKVDNALQSGNSQESVTEQDSKDSTYSLSSTLTLSKADYEKHKVYACEVTHQGLSSPVTKSFNRGEC
notes: one-arm antibody
B2: the “KD ratio to GLS3000 (Affinity up)” value came out at 25.1.

B3: GLS3000 L27bE (Kabat) L chain altered form, one-arm antibody with CE115HA000 (antibody, human IgG1, kappa, L234A L235A, N297A, name in Kabat numbering)
heavy: QVQLVESGGGVVQPGRSLRLSCAASGFTFSNAWMHWVRQAPGKGLEWVAQIKAKSNNYATYYAESVKGRFTISRDDSKNSLYLQMNSLKTEDTAVYYCRYVHYGAYYGVDAWGQGTTVTVSSASTKGPSVFPLAPSSKSTSGGTAALGCLVKDYFPEPVTVSWNSGALTSGVHTFPAVLQSSGLYSLSSVVTVPSSSLGTQTYICNVNHKPSNTKVDKKVEPKSCDKTHTCPPCPAPEAAGGPSVFLFPPKPKDTLMISRTPEVTCVVVDVSHEDPEVKFNWYVDGVEVHNAKTKPREEQYASTYRVVSVLTVLHQDWLNGKEYKCKVSNKALPAPIEKTISKAKGQPREPQVYTLPPSRCELTKNQVSLSCAVKGFYPSDIAVEWESNGQPENNYKTTPPVLDSDGSFFLVSKLTVDKSRWQQGNVFSCSVMHEALHNHYTQKSLSLSPDYKDDDDK
chain: EPKSSDKTHTCPPCPAPELLGGPSVFLFPPKPKDTLMISRTPEVTCVVVDVSHEDPEVKFNWYVDGVEVHNAKTKPREEQYNSTYRVVSVLTVLHQDWLNGKEYKCKVSNKALPAPIEKTISKAKGQPREPQVCTLPPSRDELTKNQVSLWCLVKGFYPSDIAVEWESNGQPENNYKTTPPVLDSDGSFFLYSKLTVDKSRWQQGNVFSCSVMHEALHNRYTQKSLSLSP
light: DIVMTQSPLSLPVTPGEPASISCRSSQSEVHSNRNTYLHWYQQKPGQAPRLLIYKVSNRFSGVPDRFSGSGSGTDFTLKISRVEAEDVGVYYCGQGTQVPYTFGQGTKLEIKRTVAAPSVFIFPPSDEQLKSGTASVVCLLNNFYPREAKVQWKVDNALQSGNSQESVTEQDSKDSTYSLSSTLTLSKADYEKHKVYACEVTHQGLSSPVTKSFNRGEC
notes: one-arm antibody
On to B3, for which the “KD ratio to GLS3000 (Affinity up)” value is 26.8.

B4: GLS3000 K50A (Kabat) L chain altered form, one-arm antibody with CE115HA000 (antibody, human IgG1, kappa, L234A L235A, N297A, name in Kabat numbering)
heavy: QVQLVESGGGVVQPGRSLRLSCAASGFTFSNAWMHWVRQAPGKGLEWVAQIKAKSNNYATYYAESVKGRFTISRDDSKNSLYLQMNSLKTEDTAVYYCRYVHYGAYYGVDAWGQGTTVTVSSASTKGPSVFPLAPSSKSTSGGTAALGCLVKDYFPEPVTVSWNSGALTSGVHTFPAVLQSSGLYSLSSVVTVPSSSLGTQTYICNVNHKPSNTKVDKKVEPKSCDKTHTCPPCPAPEAAGGPSVFLFPPKPKDTLMISRTPEVTCVVVDVSHEDPEVKFNWYVDGVEVHNAKTKPREEQYASTYRVVSVLTVLHQDWLNGKEYKCKVSNKALPAPIEKTISKAKGQPREPQVYTLPPSRCELTKNQVSLSCAVKGFYPSDIAVEWESNGQPENNYKTTPPVLDSDGSFFLVSKLTVDKSRWQQGNVFSCSVMHEALHNHYTQKSLSLSPDYKDDDDK
chain: EPKSSDKTHTCPPCPAPELLGGPSVFLFPPKPKDTLMISRTPEVTCVVVDVSHEDPEVKFNWYVDGVEVHNAKTKPREEQYNSTYRVVSVLTVLHQDWLNGKEYKCKVSNKALPAPIEKTISKAKGQPREPQVCTLPPSRDELTKNQVSLWCLVKGFYPSDIAVEWESNGQPENNYKTTPPVLDSDGSFFLYSKLTVDKSRWQQGNVFSCSVMHEALHNRYTQKSLSLSP
light: DIVMTQSPLSLPVTPGEPASISCRSSQSLVHSNRNTYLHWYQQKPGQAPRLLIYAVSNRFSGVPDRFSGSGSGTDFTLKISRVEAEDVGVYYCGQGTQVPYTFGQGTKLEIKRTVAAPSVFIFPPSDEQLKSGTASVVCLLNNFYPREAKVQWKVDNALQSGNSQESVTEQDSKDSTYSLSSTLTLSKADYEKHKVYACEVTHQGLSSPVTKSFNRGEC
notes: one-arm antibody
In the case of B4, the “KD ratio to GLS3000 (Affinity up)” value is 59.5.
